Tests used:
[1] = target: full length cTRα (chicken) (UniProt P04625); experiment: cell-based or functional assay
LexA-cTRα LBD = target: T1, LexA-cTRα LBD (chicken, UniProt P0A7C2 1-202; P04625 120-408, limits assumed); experiment: yeast two-hybrid, β-galactosidase (FIG. 8B)
T1 construct: also called LexA-TR LBD; LexA-TR
T1 sequence (looked up): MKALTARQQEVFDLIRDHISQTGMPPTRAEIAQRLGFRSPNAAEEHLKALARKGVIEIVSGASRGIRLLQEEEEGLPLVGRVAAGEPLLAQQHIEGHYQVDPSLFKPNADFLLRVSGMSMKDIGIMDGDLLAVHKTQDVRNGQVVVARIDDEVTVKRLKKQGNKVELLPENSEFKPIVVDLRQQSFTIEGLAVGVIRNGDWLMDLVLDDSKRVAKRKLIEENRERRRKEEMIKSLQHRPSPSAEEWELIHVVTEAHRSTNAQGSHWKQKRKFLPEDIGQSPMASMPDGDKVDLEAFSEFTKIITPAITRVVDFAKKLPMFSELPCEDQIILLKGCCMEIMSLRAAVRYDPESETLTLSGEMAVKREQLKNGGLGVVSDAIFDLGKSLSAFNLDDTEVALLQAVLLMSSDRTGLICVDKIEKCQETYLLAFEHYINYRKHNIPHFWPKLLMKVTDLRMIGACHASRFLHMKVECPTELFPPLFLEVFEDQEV
Procedure: (§1) The following receptor baits were used: LexA-cTRα LBD, LexA-hTRβ LBD, LexA-hRARα LBD, LexA-hRXRα LBD, and LexA-hGR LBD. […] Yeast cells harboring appropriate plasmids were grown in selective media with Gal/Raf in the presence or absence of cognate ligand (1 μM T3 for TR, all trans or 9-cis RA for RAR, 9-cis RA for RXR, and 10 μM deoxycorticosterone for GR) overnight before β-galactosidase activity was assayed using o-Nitrophenyl β-D-Galactopyranoside as the substrate. β-galactosidase units are expressed as (O.D. 420 nm×1000)/(minutes of incubation×O.D. 600 nm of yeast suspension).

LexA-hRXRα LBD = target: T2, LexA-hRXRα LBD (human, UniProt P0A7C2 1-202; P19793 198-462, limits assumed); experiment: yeast two-hybrid, β-galactosidase (FIG. 8B)
T2 construct: also called LexA-RXR
T2 sequence (looked up): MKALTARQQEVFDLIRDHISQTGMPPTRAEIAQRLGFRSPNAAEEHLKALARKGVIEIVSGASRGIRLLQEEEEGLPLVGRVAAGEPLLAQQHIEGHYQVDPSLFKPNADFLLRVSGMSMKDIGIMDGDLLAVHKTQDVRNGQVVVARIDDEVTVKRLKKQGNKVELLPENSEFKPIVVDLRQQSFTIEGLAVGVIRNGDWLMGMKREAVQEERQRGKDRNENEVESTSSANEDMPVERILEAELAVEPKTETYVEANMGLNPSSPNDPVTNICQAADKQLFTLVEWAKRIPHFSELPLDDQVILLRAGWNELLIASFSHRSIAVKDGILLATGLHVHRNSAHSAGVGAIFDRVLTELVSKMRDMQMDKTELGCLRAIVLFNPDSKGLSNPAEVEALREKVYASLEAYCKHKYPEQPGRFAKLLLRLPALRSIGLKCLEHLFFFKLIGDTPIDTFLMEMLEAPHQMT
Procedure: as §1

LexA-hGR LBD = target: T3, LexA-hGR LBD (human, UniProt P0A7C2 1-202; P04150 485-777, limits assumed); experiment: yeast two-hybrid (data not shown)
T3 construct: also called LexA-GR
T3 sequence (looked up): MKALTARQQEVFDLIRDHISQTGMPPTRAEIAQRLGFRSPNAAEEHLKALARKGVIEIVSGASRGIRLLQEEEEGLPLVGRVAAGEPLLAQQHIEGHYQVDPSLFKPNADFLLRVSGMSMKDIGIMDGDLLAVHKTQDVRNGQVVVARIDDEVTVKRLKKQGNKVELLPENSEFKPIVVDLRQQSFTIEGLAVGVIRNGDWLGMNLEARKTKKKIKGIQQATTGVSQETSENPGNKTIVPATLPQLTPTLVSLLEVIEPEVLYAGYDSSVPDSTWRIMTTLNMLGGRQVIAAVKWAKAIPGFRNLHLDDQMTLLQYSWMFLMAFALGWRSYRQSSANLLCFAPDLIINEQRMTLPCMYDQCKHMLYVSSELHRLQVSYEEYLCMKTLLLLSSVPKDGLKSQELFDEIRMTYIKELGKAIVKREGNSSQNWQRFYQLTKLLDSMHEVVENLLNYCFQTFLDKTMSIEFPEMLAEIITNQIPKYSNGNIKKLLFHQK
Procedure: as §1

LexA-hRARα LBD = target: T4, LexA-hRARα LBD (human, UniProt P0A7C2 1-202; P10276 154-462, limits assumed); experiment: yeast two-hybrid (data not shown)
T4 construct: also called LexA-RAR
T4 sequence (looked up): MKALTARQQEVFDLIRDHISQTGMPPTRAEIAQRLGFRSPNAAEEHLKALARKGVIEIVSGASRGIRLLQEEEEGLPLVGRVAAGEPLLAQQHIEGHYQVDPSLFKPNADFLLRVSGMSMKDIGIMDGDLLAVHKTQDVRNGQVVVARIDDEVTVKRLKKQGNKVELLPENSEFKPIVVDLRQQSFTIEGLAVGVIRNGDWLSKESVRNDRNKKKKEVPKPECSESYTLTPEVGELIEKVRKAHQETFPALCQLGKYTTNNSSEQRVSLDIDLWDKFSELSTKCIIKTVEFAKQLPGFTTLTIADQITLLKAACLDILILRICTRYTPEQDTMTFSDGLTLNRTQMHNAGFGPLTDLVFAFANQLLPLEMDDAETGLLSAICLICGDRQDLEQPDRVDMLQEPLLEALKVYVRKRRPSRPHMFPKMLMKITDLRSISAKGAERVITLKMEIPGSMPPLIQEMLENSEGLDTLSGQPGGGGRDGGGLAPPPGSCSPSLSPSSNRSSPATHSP
Procedure: as §1

B42-hRXRα LBD = target: T5, B42-hRXRα LBD (human, UniProt P19793 198-462); experiment: yeast two-hybrid (data not shown)
T5 construct: also called B42-RXR LBD; LBD of RXR (fused with B-42)
T5 sequence (looked up): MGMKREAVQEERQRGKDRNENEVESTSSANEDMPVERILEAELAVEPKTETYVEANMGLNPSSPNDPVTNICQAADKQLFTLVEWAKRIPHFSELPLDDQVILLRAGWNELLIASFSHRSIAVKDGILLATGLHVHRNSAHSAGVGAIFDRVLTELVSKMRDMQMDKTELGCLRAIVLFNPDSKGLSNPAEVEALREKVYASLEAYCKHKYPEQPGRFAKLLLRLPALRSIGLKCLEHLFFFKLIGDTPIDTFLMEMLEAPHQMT
Procedure: as §1

B42-cTRα LBD = target: T6, B42-cTRα LBD (chicken, UniProt P04625 120-408); experiment: yeast two-hybrid (data not shown)
T6 construct: also called B42-TR LBD; LBD of TR (fused with B-42)
T6 sequence (looked up): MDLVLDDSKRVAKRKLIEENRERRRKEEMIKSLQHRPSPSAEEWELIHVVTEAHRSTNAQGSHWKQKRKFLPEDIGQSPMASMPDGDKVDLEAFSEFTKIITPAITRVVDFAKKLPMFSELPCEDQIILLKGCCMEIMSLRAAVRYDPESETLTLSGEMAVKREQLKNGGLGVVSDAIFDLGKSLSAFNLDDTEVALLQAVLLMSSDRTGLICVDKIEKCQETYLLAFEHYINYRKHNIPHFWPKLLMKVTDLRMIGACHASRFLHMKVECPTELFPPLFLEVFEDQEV
Procedure: as §1

B42-hRARα LBD = target: T7, B42-hRARα LBD (human, UniProt P10276 154-462); experiment: yeast two-hybrid (data not shown)
T7 construct: also called B42-RAR LBD; LBD of RAR
T7 sequence (looked up): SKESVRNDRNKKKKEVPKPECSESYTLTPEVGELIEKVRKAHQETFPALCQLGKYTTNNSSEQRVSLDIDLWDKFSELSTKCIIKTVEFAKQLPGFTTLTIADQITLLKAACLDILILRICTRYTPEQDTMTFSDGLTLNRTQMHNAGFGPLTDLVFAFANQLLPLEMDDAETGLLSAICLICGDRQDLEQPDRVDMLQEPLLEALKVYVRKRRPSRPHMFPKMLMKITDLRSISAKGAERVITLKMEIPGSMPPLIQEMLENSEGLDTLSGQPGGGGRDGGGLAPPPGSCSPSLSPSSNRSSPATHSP
Procedure: as §1

Molecule: NRIF3 (full length) (from UniProt Q13352 1-177)
- enhancement of TR-mediated activation of the GH-TRE-tk-CAT reporter in HeLa cells (FIG. 5B) [1]: 3.5 fold
- enhancement of TR-mediated activation of the IR-ΔMTV-CAT reporter in HeLa cells (FIG. 5A) [1]: 2.5 to 3 fold

B1: β3-endonexin short form (EnS) expressed from pJG4-5 (other, not shown: large carriers)
chain: MPVKRSLKLDGLLEENSFDPSKITRKKSVITYSPTTGTCQMSLFASPTSSEEQKHRNGLSNEKRKKLNHPSLTESKESTTKDNDEFMMLLSKVEKLSEEIMEIMQNLSSIQ
notes: Yeast two-hybrid prey; also called pJG4-5/EnS
- binding result (LexA-cTRα LBD): no binding
- binding result (LexA-hRXRα LBD): no binding
- binding result (LexA-hGR LBD): no binding
- binding result (LexA-hRARα LBD): no binding

B2: LexA alone (other, UniProt P0A7C2 1-202, looked up)
chain: MKALTARQQEVFDLIRDHISQTGMPPTRAEIAQRLGFRSPNAAEEHLKALARKGVIEIVSGASRGIRLLQEEEEGLPLVGRVAAGEPLLAQQHIEGHYQVDPSLFKPNADFLLRVSGMSMKDIGIMDGDLLAVHKTQDVRNGQVVVARIDDEVTVKRLKKQGNKVELLPENSEFKPIVVDLRQQSFTIEGLAVGVIRNGDWL
notes: Negative control bait; also called bait LexA alone (negative control)
- binding result (B42-hRXRα LBD): no binding
- binding result (B42-cTRα LBD): no binding
- binding result (B42-hRARα LBD): no binding

— US20090286252A1 (NEW YORK UNIVERSITY, published 2009)
